These results are taken from PMC8476856.

For orientation: koff means a measure of how fast the partners let go of each other. Usually kon stands for the second-order rate constant of association.

The target of the assay is recombinant human α1A/βIII tubulin (human) (UniProt Q71U36). Briefly: in vitro microtubule dynamics assay.

As to “recombinant human α1A/βIII tubulin (from UniProt Q71U36 1-451; Q13509 1-450) (complex)”, the critical concentration was determined as 0.94 µM, the dissociation rate constant (koff) worked out at 3.2 s⁻¹ and the on-rate (kon) was determined as 3.48e+06 M⁻¹ s⁻¹.
